According to article PMC11873350:
Like-named read-outs stand apart in the source and are kept apart here.

Experiments:
Assay in all cases: BLI
SHH002-hu1-MICA (human) = SHH002-hu1-MICA (human) (UniProt Q29983)
rhNKG2D-Fc (human) [1] = target: rhNKG2D-Fc (human) (UniProt P26718)
rhNKG2D-Fc (human) [2] = target: rhNKG2D-Fc (human) (UniProt P26718); remark: listed apart in the source

UniProt Q29983, sequence (Q29983 whole entry, looked up): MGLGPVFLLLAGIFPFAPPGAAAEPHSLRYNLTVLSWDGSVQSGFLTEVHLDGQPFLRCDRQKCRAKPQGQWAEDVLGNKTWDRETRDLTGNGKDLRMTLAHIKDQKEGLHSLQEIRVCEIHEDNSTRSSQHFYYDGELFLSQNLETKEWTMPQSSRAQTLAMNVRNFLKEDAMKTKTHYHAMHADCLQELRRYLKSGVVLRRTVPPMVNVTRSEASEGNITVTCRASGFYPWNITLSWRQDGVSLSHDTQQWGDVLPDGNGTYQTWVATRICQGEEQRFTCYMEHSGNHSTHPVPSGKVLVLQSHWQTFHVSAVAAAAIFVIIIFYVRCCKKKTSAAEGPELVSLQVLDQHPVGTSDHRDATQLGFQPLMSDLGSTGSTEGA

Kd (SHH002-hu1-MICA (human))	Kd (rhNKG2D-Fc (human) [1])	Kd (rhNKG2D-Fc (human) [2])	Substance
45.2 nM			rhNKG2D-Fc (from UniProt P26718 73-216) (Fc fusion)
	12.6 nM	1.26 nM	rhMICA-His (from UniProt Q29983 24-383) (ligand)
< 0.001 nM			rhFzd7-His (from UniProt O75084 33-574) (receptor)
